Assay results as given in IntAct's records for PubMed 17959776.

B1: Nitrogen regulatory protein P-II (Synechococcus elongatus (strain PCC 7942)), P0A3F4 (parent)
chain: MKKIEAIIRPFKLDEVKIALVNAGIVGMTVSEVRGFGRQKGQTERYRGSEYTVEFLQKLKLEIVVEDAQVDTVIDKIVAAARTGEIGDGKIFVSPVDQTIRIRTGEKNADAI
partner: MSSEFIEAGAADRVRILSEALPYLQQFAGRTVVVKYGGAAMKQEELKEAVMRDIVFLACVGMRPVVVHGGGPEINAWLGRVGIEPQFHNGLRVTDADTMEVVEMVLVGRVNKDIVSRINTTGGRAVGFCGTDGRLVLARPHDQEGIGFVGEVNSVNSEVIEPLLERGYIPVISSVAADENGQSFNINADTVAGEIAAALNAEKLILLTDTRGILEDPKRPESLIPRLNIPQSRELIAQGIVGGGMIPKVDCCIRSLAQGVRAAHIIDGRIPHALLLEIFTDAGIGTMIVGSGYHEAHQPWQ
B2: Acetylglutamate kinase (Synechococcus elongatus (strain PCC 7942)), Q6V1L5 (parent)
chain: B1 partner

Variants of: B1
Conditions: with argb_syne7 argB, Q6V1L5

effect of a mutation on the interaction | Variant
disrupting interaction | Y46A
disrupting interaction | R45A
disrupting interaction strength | S49D
disrupting interaction strength | S49E
disrupting interaction strength | S49A
disrupting interaction | R47A
disrupting interaction | F11A
disrupting interaction | E85A

Variants of: B1
Conditions: with argb_syne7 argB

effect of a mutation on the interaction | Variant
disrupting interaction | S49D

Variants of: B2
Conditions: with glnb_syne7 glnB, P0A3F4

effect of a mutation on the interaction | Variant
disrupting interaction | MSSEFIEAGAADRVRILSEALPYLQQFAGRTVVVKYGGAAMKQEELKEAVMRDIVFLACVGMRPVVVHGGGPEINAWLGRVGIEPQFHNGLRVTDADTMEVVEMVLVGRVNKDIVSRINTTGGRAVGFCGTDGRLVLAAPHDQEGIGFVGEVNSVNSEVIEPLLERGYIPVISSVAADENGQSFNINADTVAGEIAAALNAEKLILLTDTRGILEDPKRPESLIPRLNIPQSRELIAQGIVGGGMIPKVDCCIRSLAQGVRAAHIIDGRIPHALLLEIFTDAGIGTMIVGSGYHEAHQPWQ [R139A]
disrupting interaction | MSSEFIEAGAADRVRILSEALPYLQQFAGRTVVVKYGGAAMKQEELKEAVMRDIVFLACVGMRPVVVHGGGPEINAWLGRVGIEPQFHNGLRVTDADTMEVVEMVLVGRVNKDIVSRINTTGGRAVGFCGTDGRLVLARPHDQEGIGFVGEVNSVNSEVIEPLLERGYIPVISSVAADENGQSFNINADTVAGEIAAALNAEKLILLTDTRGILEDPKRPESLIPRLNAPQSRELIAQGIVGGGMIPKVDCCIRSLAQGVRAAHIIDGRIPHALLLEIFTDAGIGTMIVGSGYHEAHQPWQ [I229A]
disrupting interaction | MSSEFIEAGAADRVRILSEALPYLQQFAGRTVVVKYGGAAMKQEELKEAVMRDIVFLACVGMRPVVVHGGGPEINAWLGRVGIEPQFHNGLRVTDADTMEVVEMVLVGRVNKDIVSRINTTGGRAVGFCGTDGRLVLARPHDQEGIGFVGEVNSVNSEVIEPLLERGYIPVISSVAADENGQSFNINADTVAGEIAAALNAEKLILLTDTRGILEDPKRPESLIPRLNIPQSRELIAQGIVGGGMIPKVDCCIASLAQGVRAAHIIDGRIPHALLLEIFTDAGIGTMIVGSGYHEAHQPWQ [R254A]
disrupting interaction | MSSEFIEAGAADRVRILSEALPYLQQFAGRTVVVKYGGAAMKQEELKEAVMRDIVFLACVGMRPVVVHGGGPEINAWLGRVGIEPQFHNGLRVTDADTMEVVEMVLVGRVNKDIVSRINTTGGRAVGFCGTDGRLVLARPHDQEGIGFVGEVNSVNSEVIEPLLERGYIPVISSVAADENGQSFNINADTVAGEIAAALNAEKLILLTDTRGILEDPKRPESLIPRLNIPQSRELIAQGIVGGGMIPKVDCCIRSLAAGVRAAHIIDGRIPHALLLEIFTDAGIGTMIVGSGYHEAHQPWQ [Q258A]
disrupting interaction | MSSEFIEAGAADRVRILSEALPYLQQFAGRTVVVKYGGAAMKQEELKEAVMRDIVFLACVGMRPVVVHGGGPEINAWLGRVGIEPQFHNGLRVTDADTMEVVEMVLVGRVNKDIVSRINTTGGRAVGFCGTDGRLVLARPHDQEGIGFVGEVNSVNSEVIEPLLERGYIPVISSVAADENGQSFNINADTVAGEIAAALNAEKLILLTDTRGILEDPKRPESLIPRLNIPQSRELIAQGIVGGGMIPKVDCCIRSAAQGVRAAHIIDGRIPHALLLEIFTDAGIGTMIVGSGYHEAHQPWQ [L256A]
disrupting interaction | MSSEFIEAGAADRVRILSEALPYLQQFAGRTVVVKYGGAAMKQEELKEAVMRDIVFLACVGMRPVVVHGGGPEINAWLGRVGIEPQFHNGLRVTDADTMEVVEMVLVGRVNKDIVSRINTTGGRAVGFCGTDGRLVLARPHDQEGIGFVGEVNSVNSEVIEPLLERGYIPVISSVAADENGQSFNINADTVAGEIAAALNAEKLILLTDTRGILEDPKRPESLIPRLNIPQSAELIAQGIVGGGMIPKVDCCIRSLAQGVRAAHIIDGRIPHALLLEIFTDAGIGTMIVGSGYHEAHQPWQ [R233A]
